Tested on: chondrocytes
Assay: Levels of differentiation- and inflammation-related proteins (type II collagen, Sox-9, I-κB, COX-2), Western blot in chondrocytes
Type: cell-based
Conditions: 10 ng/mL EGF, 10 nM PMA or 1 μM RA
Protocol: First, the chondrocytes derived from joints were cultured in a DMEM medium according to a known method (E. H. Hong, et al., J. Biol. Chem. 285:1283-1295, 2010). Then, the cultured chondrocytes were inoculated into culture dishes at a density of 5×10^4 cells/cm^2, which were irradiated with 0 cGy, 0.5 cGy, 1.0 cGy, 1.5 cGy, and 2.0 cGy LDR using a ^137Cs-ray source (KIRMS, Korea), and the levels of type II collagen or Sox-9 protein, which are cartilage-specific differentiation marker proteins, and I-κB or COX-2 protein, which are inflammation-related proteins, were determined via Western blot analysis, and the transcriptional activity of Sox-9 protein and NF-κB, which is affected by I-κB, were determined by reporter gene assay (FIGS. 1a and b). […]
Finally, chondrocytes were transfected with 3 μg of GFP-labeled S83A α-catenin, FLAG-labeled S33A β-catenin, or wild type γ-catenin, reacted with or without treatment with 5 μM or 10 μM BAY 11-7082 for 24 hours, and the levels of I-κB and COX-2 proteins were determined via Western blot analysis (FIG. 5g). […]

B1: epidermal growth factor (protein, UniProt P01133 23-1207, looked up)
Pro-epidermal growth factor: PQHWSCPEGTLAGNGNSTCVGPAPFLIFSHGNSIFRIDTEGTNYEQLVVDAGVSVIMDFHYNEKRIYWVDLERQLLQRVFLNGSRQERVCNIEKNVSGMAINWINEEVIWSNQQEGIITVTDMKGNNSHILLSALKYPANVAVDPVERFIFWSSEVAGSLYRADLDGVGVKALLETSEKITAVSLDVLDKRLFWIQYNREGSNSLICSCDYDGGSVHISKHPTQHNLFAMSLFGDRIFYSTWKMKTIWIANKHTGKDMVRINLHSSFVPLGELKVVHPLAQPKAEDDTWEPEQKLCKLRKGNCSSTVCGQDLQSHLCMCAEGYALSRDRKYCEDVNECAFWNHGCTLGCKNTPGSYYCTCPVGFVLLPDGKRCHQLVSCPRNVSECSHDCVLTSEGPLCFCPEGSVLERDGKTCSGCSSPDNGGCSQLCVPLSPVSWECDCFPGYDLQLDEKSCAASGPQPFLLFANSQDIRHMHFDGTDYGTLLSQQMGMVYALDHDPVENKIYFAHTALKWIERANMDGSQRERLIEEGVDVPEGLAVDWIGRRFYWTDRGKSLIGRSDLNGKRSKIITKENISQPRGIAVHPMAKRLFWTDTGINPRIESSSLQGLGRLVIASSDLIWPSGITIDFLTDKLYWCDAKQSVIEMANLDGSKRRRLTQNDVGHPFAVAVFEDYVWFSDWAMPSVMRVNKRTGKDRVRLQGSMLKPSSLVVVHPLAKPGADPCLYQNGGCEHICKKRLGTAWCSCREGFMKASDGKTCLALDGHQLLAGGEVDLKNQVTPLDILSKTRVSEDNITESQHMLVAEIMVSDQDDCAPVGCSMYARCISEGEDATCQCLKGFAGDGKLCSDIDECEMGVPVCPPASSKCINTEGGYVCRCSEGYQGDGIHCLDIDECQLGEHSCGENASCTNTEGGYTCMCAGRLSEPGLICPDSTPPPHLREDDHHYSVRNSDSECPLSHDGYCLHDGVCMYIEALDKYACNCVVGYIGERCQYRDLKWWELRHAGHGQQQKVIVVAVCVVVLVMLLLLSLWGAHYYRTQKLLSKNPKNPYEESSRDVRSRRPADTEDGMSSCPQPWFVVIKEHQDLKNGGQPVAGEDGQAADGSMQPTSWRQEPQLCGMGTEQGCWIPVSSDKGSCPQVMERSFHMPSYGTQTLEGGVEKPHSLLSANPLWQQRALDPPHQMELTQ
modifications: Pro-epidermal growth factor
notes: agent known to induce dedifferentiation of chondrocytes
pathological changes induced by soluble factor (type II collagen, Sox-9, COX-2 proteins): inhibition of expression of type II collagen and Sox-9 proteins and induction of COX-2 protein expression

Reference: patent US10301596B2, “Method of repairing damaged chondrocytes via low-dose irradiation” (KOREA INSTITUTE OF RADIOLOGICAL & MEDICAL SCIENCES, priority 2013, dated 2019)
